In patent publication US6995141B1, “Interleukin 1β protease and interleukin 1β protease inhibitors” (Vertex Pharmaceuticals Incorporated, priority 1990, dated 2006):
One block for each molecule: values may come before it. Non-standard residues stand in square brackets, D forms with d.

Experiments:
IL-1β pro = target: T1, IL-1β pro (Homo sapiens, UniProt P29466); experiment: Inhibition of IL-1β pro catalyzed degradation of preIL-1β, in vitro assay with Western blot; format: biochemical
T1 construct: beginning with amino acid 120; Based upon a molecular weight analysis, the approximate C-terminus of mature IL-1β pro is about amino acid 297
T1 sequence (P29466 120-297): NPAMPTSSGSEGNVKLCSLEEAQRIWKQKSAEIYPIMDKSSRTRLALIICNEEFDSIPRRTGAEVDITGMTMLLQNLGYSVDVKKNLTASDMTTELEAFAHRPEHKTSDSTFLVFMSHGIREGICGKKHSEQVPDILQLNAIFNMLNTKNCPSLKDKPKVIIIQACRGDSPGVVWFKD
T1 sequence (P29466 317-404): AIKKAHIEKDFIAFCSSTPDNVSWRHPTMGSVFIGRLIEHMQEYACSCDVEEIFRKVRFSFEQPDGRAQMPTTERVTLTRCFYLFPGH
Description: Products were subjected to SDS-PAGE, transferred to nitrocellulose, and probed with an antibody raised against the COOH terminus of mature IL-1β. Lane 3, preIL-1β incubated with 25 μM of inhibitor; lane 4, preIL-1β incubated with 10 μM of inhibitor; lane 5, preIL-1β incubated with 5 μM inhibitor, lane 6, preIL-1β incubated with 1 μM inhibitor.
Boc-Asp-CH2F was tested for its ability to inhibit IL-1β pro catalyzed degradation of preIL-1β using an in vitro assay method. Black, et al., J. Biol. Chem., 263(19): 9437 (1988). Boc-Asp-CH2F was prepared in accordance with the method of example of 1A.
5 μl of preIL-1β (about 50 μg/ml in PBS) was mixed with 10 μl of purified IL-1β pro (15–75 μg/ml in PBS) and incubated at 37° C. for 30 minutes. The incubation was terminated by placing the samples on Dry Ice or by the addition of SDS sample buffer. PMSF was then added to a concentration of 1 mM, and the samples were dialyzed against water. After dialysis, the samples were concentrated to dryness in a Speed-Vac concentrator and dissolved in SDS sample buffer.
SDS-PAGE was carried out with 12% polyacrylamide gels. The gels were placed in transfer buffer (0.192 M glycine. 0.025 M Tris-HCl (pH 8.3), 20% v/v methanol), and protein was then electrophoresed onto nitrocellulos (Sartorius) in a Hoeffer transfer apparatus (1 h at maximum voltage). […]

[1] = target: T2, protease that generates mature IL-1β from the precursor polypeptide (Homo sapiens, UniProt P29466); conditions: Black et al., FEBS Lett., 247:386–90 (1989); cited from earlier work
T2 construct: host or cells: partially purified (about 500-fold) from THP-1 cell lysates, per Black et al., FEBS Lett. 247:386-90 (1989)
T2 sequence (P29466 120-297 limits assumed): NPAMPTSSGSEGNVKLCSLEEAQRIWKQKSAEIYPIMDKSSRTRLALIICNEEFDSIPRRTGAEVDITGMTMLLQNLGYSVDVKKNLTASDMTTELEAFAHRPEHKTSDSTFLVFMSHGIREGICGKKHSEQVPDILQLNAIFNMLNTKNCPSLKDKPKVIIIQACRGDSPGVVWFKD
T2 sequence (P29466 317-404 limits assumed): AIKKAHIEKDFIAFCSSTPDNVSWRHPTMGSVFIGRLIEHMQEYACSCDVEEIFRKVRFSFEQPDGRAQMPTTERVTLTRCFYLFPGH

[2] = target: T3, purified human IL-1β pro enzyme (Homo sapiens, UniProt P29466); experiment: Cleavage of synthetic peptide substrates by purified human IL-1β pro enzyme (RP-HPLC); format: biochemical; set-up: key to Reactivity Relative To Peptide 1: reactivity relative to peptide Ala112–Ser121 of precursor IL-1β; conditions: for ability of IL-1β pro to cleave the substrate peptide (in words): Tables 1 and 2
T3 construct: beginning with amino acid 120; Based upon a molecular weight analysis, the approximate C-terminus of mature IL-1β pro is about amino acid 297; endogenous in cells; host or cells: THP-1 cells (ATCC), stimulated, lysed, six-step chromatography
T3 sequence (P29466 120-297): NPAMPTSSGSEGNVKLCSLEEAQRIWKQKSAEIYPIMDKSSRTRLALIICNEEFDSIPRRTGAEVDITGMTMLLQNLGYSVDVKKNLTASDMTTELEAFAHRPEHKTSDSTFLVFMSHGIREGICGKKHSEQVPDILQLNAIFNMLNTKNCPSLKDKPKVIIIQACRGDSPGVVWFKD
T3 sequence (P29466 317-404): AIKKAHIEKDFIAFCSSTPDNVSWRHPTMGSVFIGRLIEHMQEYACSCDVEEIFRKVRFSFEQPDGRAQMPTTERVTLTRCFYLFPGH
Description: This example illustrates the range of substrate specificity of purified human IL-1β pro enzyme to cleave a group of amino acid sequences. A variety of peptide substrates were prepared featuring changes in individual amino acids in the region corresponding to the cleavage site in human precursor IL-1β (His 115 to Pro 118). The reactivity of the peptide substrates was expressed relative to the peptide corresponding to Ala 112 to Ser 121 of the precursor IL-1β sequence.
Peptide solutions of standard concentration were prepared by dissolving about 2–3 mg of peptide substrate in water, loading the solution onto a Waters Sep-Pak C18 cartridge and washing three times with 5 ml of water. The peptide substrates were eluted with acetonitrile and then evaporated to dryness. Each substrate was standardized to 1 mM by amino acid analysis prior to use.
Purified human IL-1β pro enzyme (10 μl), peptide substrate in water (10 μl), and 10 mM Tris buffer, pH 8.0 containing 25% v/v glycerol (10 μl) were mixed and the mixtures were incubated at 37° C. for four hours. The reaction was quenched with by adding 1 M glycine/HCl buffer pH 2.0 (10 μl). The samples were then analyzed using RP-HPLC with a Vydac C18 column (0.46 cm×25 cm) and eluting with a linear gradient from 100% solvent A to 70% solvent A/30% solvent B over 30 minutes at a flow rate of 1 ml/min. The effluent was monitored at 280 nm absorbing product.
This example illustrates the effect of substrate peptide length on the ability of human IL-1β pro enzyme to cleave peptide substrates. […] Five substrate peptides were made that correspond to the amino acid sequence of the IL-1β pro cleavage site of human precursor IL-1.

[3] = target: Peptide 7, Ala-Tyr-Val-Phe-Asp-Ala-Pro-Val-Arg-Ser
[4] = target: Peptide 8, Ala-Tyr-Val-His-Asp-Ala-Ala-Val-Arg-Ser
[5] = target: Peptide 6, Ala-Tyr-Val-His-Asp-Val-Pro-Val-Arg-Ser
[6] = target: Peptide 3, Ala-Tyr-Val-His-Glu-Ala-Pro-Val-Arg-Ser
[7] = target: Peptide 2, Ala-Tyr-Val-His-Asn-Ala-Pro-Val-Arg-Ser
[8] = target: Peptide 4, Ala-Tyr-Val-His-(D-Asp)-Ala-Pro-Val-Arg-Ser
[9] = target: Peptide 5, Ala-Tyr-Val-His-Asp-Gly-Pro-Val-Arg-Ser
[10] = target: Peptide 1, Ala-Tyr-Val-His-Asp-Ala-Pro-Val-Arg-Ser (human)
[11] = target: T4, Peptide 10, Ac-Tyr-Val-His-Asp-Ala-Pro-Val-Arg-NH2 (human)
T4 sequence (peptide, N-terminal acetyl (Ac-); C-terminal amide (-NH2)): YVHDAPVR

[12] = target: Peptide 9, Glu-Ala-Tyr-Val-His-Asp-Ala-Pro (human)
[13] = Table 1, changes at cleavage site, 37° C., four hours, extent of peptide cleavage by RP-HPLC peak area at 280 nm
[14] = Table 2, effect of substrate peptide length, conducted as in Example 1

Molecule: CC(C)(C)OC(=O)N[C@@H](CC(=O)O)C(=O)CF [Boc-Asp-CH2F]
inhibition of generation of mature IL-1β from preIL-1β (IL-1β pro; inhibitor concentration 1 μM): partially inhibits
inhibition of generation of mature IL-1β from preIL-1β (IL-1β pro; inhibitor concentration 5 μM): completely inhibits

Molecule: CCN1C(=O)C=CC1=O [N-ethylmaleimide]
inhibition of the protease (in words) [1]: inhibited

Molecule: O=C(O)CI [iodoacetate]
inhibition of the protease (in words) [1]: inhibited

Molecule: Ala-Tyr-Val-His-Asn-Ala-Pro-Val-Arg-Ser (Seq. I.D. No. 14) (AYVHNAPVRS) [Peptide 2, substrate peptide, Asp changed to asparagine]
Reactivity Relative To Peptide 1 [2, 13]: <0.01
ability of IL-1β pro to cleave the substrate peptide (in words) [2]: profound effect on the ability of IL-1β pro to cleave the substrate

Molecule: Ala-Tyr-Val-His-Asp-Gly-Pro-Val-Arg-Ser (Seq. I.D. No. 17) (AYVHDGPVRS) [Peptide 5, substrate peptide, P1′ alanine replaced with glycine]
times more reactive than peptide 1 [2]: 3.4 times
Reactivity Relative To Peptide 1 [2, 13]: 3.40

Molecule: Ala-Tyr-Val-His-Glu-Ala-Pro-Val-Arg-Ser (Seq. I.D. No. 15) (AYVHEAPVRS) [Peptide 3, substrate peptide, Asp changed to glutamic acid]
Reactivity Relative To Peptide 1 [2, 13]: <0.05
ability of IL-1β pro to cleave the substrate peptide (in words) [2]: profound effect on the ability of IL-1β pro to cleave the substrate

Second part, led by results:

Reactivity Relative To Peptide 1 [2, 13]: <0.01
Molecule: Ala-Tyr-Val-His-(D-Asp)-Ala-Pro-Val-Arg-Ser (Seq. I.D. No. 16) (Ac-AYVH[dD]APVRS-NH2) [Peptide 4, substrate peptide, Asp changed to D-aspartate]
ability of IL-1β pro to cleave the substrate peptide (in words) [2]: profound effect on the ability of IL-1β pro to cleave the substrate

Reactivity Relative To Peptide 1 [2, 13]: 0.47
Molecule: Ala-Tyr-Val-His-Asp-Ala-Ala-Val-Arg-Ser (Seq. I.D. No. 20) (AYVHDAAVRS) [Peptide 8, substrate peptide, P2′ proline changed to alanine]
ability of IL-1β pro to cleave the substrate peptide (in words) [2]: still cleaved by human IL-1β pro but only half as efficiently

Reactivity Relative To Peptide 1 [2, 13]: <0.05
Molecule: Ala-Tyr-Val-His-Asp-Val-Pro-Val-Arg-Ser (Seq. I.D. No. 18) (AYVHDVPVRS) [Peptide 6, substrate peptide, P1′ alanine changed to valine]
ability of IL-1β pro to cleave the substrate peptide (in words) [2]: effectively prevents proteolytic cleavage

Reactivity Relative To Peptide 1 [2, 13]: 0.50
ability of IL-1β pro to cleave the substrate peptide (in words) [2]: A similar result was obtained
Molecule: Ala-Tyr-Val-Phe-Asp-Ala-Pro-Val-Arg-Ser (Seq. I.D. No. 19) (AYVFDAPVRS) [Peptide 7]

Reactivity Relative To Peptide 1 [2, 14]: 0.74
Molecule: Glu-Ala-Tyr-Val-His-Asp-Ala-Pro- (Seq. I.D. No. 21) (EAYVHDAPVRSL) [Peptide 9, substrate peptide of the precursor IL-1β cleavage site]

Reactivity Relative To Peptide 1 [2, 14]: Not cleaved
Molecule: His-Asp-Ala-Pro- (Seq. I.D. No. 24) (HDAP) [Peptide 12, four amino acid substrate peptide]

Reactivity Relative To Peptide 1 [2, 14]: 2.40
ability of IL-1β pro to cleave the substrate peptide (in words) [2]: cleaved most efficiently
Molecule: Tyr-Val-His-Asp-Ala-Pro-Val-Arg- (Seq. I.D. No. 22) (Ac-YVHDAPVR-NH2) [Peptide 10, eight amino acid substrate peptide]

Reactivity Relative To Peptide 1 [2, 14]: Not cleaved
Molecule: Val-His-Asp-Ala-Pro-Val- (Seq. I.D. No. 23) (VHDAPV) [Peptide 11, six amino acid substrate peptide]

Reactivity Relative To Peptide 1 (peptide cleavage, RP-HPLC) (relative to Peptide 1) [3]: 0.5
Reactivity Relative To Peptide 1 (peptide cleavage, RP-HPLC) (relative to Peptide 1) [4]: 0.47
Reactivity Relative To Peptide 1 (peptide cleavage, RP-HPLC) (relative to Peptide 1) [5]: < 0.05
Reactivity Relative To Peptide 1 (peptide cleavage, RP-HPLC) (relative to Peptide 1) [6]: < 0.05
Reactivity Relative To Peptide 1 (peptide cleavage, RP-HPLC) (relative to Peptide 1) [7]: < 0.01
Reactivity Relative To Peptide 1 (peptide cleavage, RP-HPLC) (relative to Peptide 1) [8]: < 0.01
Reactivity Relative To Peptide 1 (peptide cleavage, RP-HPLC) (relative to Peptide 1) [9]: 3.4
Reactivity Relative To Peptide 1 (peptide cleavage, RP-HPLC) (relative to Peptide 1) [10]: 1
Reactivity Relative To Peptide 1 (peptide cleavage, RP-HPLC) (relative to Peptide 1) [11]: 2.4
Reactivity Relative To Peptide 1 (peptide cleavage, RP-HPLC) (relative to Peptide 1) [12]: 0.74
B1: purified human IL-1β pro enzyme (interleukin 1β protease), purified from THP-1 cells (enzyme)
chain: NPAMPTSSGSEGNVKLCSLEEAQRIWKQKSAEIYPIMDKSSRTRLALIICNEEFDSIPRRTGAEVDITGMTMLLQNLGYSVDVKKNLTASDMTTELEAFAHRPEHKTSDSTFLVFMSHGIREGICGKKHSEQVPDILQLNAIFNMLNTKNCPSLKDKPKVIIIQACRGDSPGVVWFKD
